Test results from patent publication US20110202000A1 (MEDTRONIC, published 2011).

Key:
[1] = target: T1, Abeta42 beta amyloid peptide (UniProt P05067 672-713); experiment: competition ELISA on coated beta amyloid, purified antibody, n=2; competitor biotinylated chimeric mouse 6E10
T1 construct: domain: Abeta42; also called Aβ42; beta amyloid (Covance)
Method: (§1) Binding of humanized variants were tested in the competition binding ELISA described in Example 1. Briefly, supernatants from the best expressing lines for each combination were quantified using an Fc capture, Kappa light chain detection ELISA in comparison to a IgG1/kappa standard. The quantified supernatants were then tested in a competition ELISA for binding to their target antigen, beta amyloid. 96 well maxisorb plates (Nunc-Fisher Scientific, Loughborough, UK) were coated overnight at 4° C. with 50 μl/well of 0.06125 μg/ml beta amyloid (Covance, UK) in carbonate buffer pH 9.6. […] The titrations, 50 μl/well, were added to washed (3× with PBS pH 7.4/0.5%BSA/0.05% Tween 20) assay plates and incubated at room temperature for 1 hour. Plates were washed as above and 100 μl/well of a 1/500 dilution of streptavidin HRP (Sigma, Poole, UK) in PBS pH 7.4/0.5% BSA/0.05% Tween was added and incubated for a further 1 hour at room temperature. […] After stopping the reaction with 50 μl/well 3M HCl, absorbance was measured at 450 nm and the binding curves of the test antibodies were compared to the mouse reference standard. Absorbance was plotted against sample concentration and straight lines were fitted through each of the data sets.
The purified antibodies were tested for binding to beta amyloid via competition ELISA as described above (n=2). Titrations of the test antibodies were done from 0.003 μg/ml to 16 μg/ml in duplicate. Absorbance at 450 nm was measured and this was plotted against test antibody concentration.

[2] = target: T1, Abeta42 beta amyloid peptide; experiment: competition ELISA on coated beta amyloid, NS0 supernatant; competitor biotinylated mouse 6E10
Method: 100 μl of the antibody mixes were transferred into the wells of Immulon Maxisorb plates precoated with 0.06125 μg/ml Abeta₄₂ beta amyloid peptide coated plates and incubated at room temperature for 1 hour. The plate was washed, and bound biotinylated mouse 6E10 was detected by adding a strepavidin-HRP conjugate (Sigma, Poole UK) (diluted at 1:500) and OPD substrate (Sigma, Poole UK). The assay was developed in the dark for 5 minutes before being stopped by the addition of 3M HCl. The assay plate was then read in a MRX TCII plate reader at absorbance 490 nm.
as §1

[3] = target: T1, Abeta42 beta amyloid peptide; experiment: competition ELISA on coated beta amyloid, purified antibody (Table 4 experiment)
Method: as §1, with “hour.” for “hour. Plates were washed as above and 100 μl/well of a 1/500 dilution of streptavidin HRP (Sigma, Poole, UK) in PBS pH 7.4/0.5% BSA/0.05% Tween was added and incubated for a further 1 hour at room temperature.”
The purified antibodies were tested for binding to beta amyloid via competition ELISA as described above (n=2). […] Absorbance at 450 nm was measured and this was plotted against test antibody concentration.

Aβ40 peptide = target: T2, Aβ40 peptide (UniProt P05067 672-711); experiment: western immunoblot of Aβ40 peptide, antibody at 1000-fold dilution
T2 construct: domain: Aβ40; also called amyloid beta
Method: (§2) The resulting conjugated antibodies (IgG and F(ab)₂ fragments) were subjected to dialysis to separate conjugated from unconjugated antibodies. The conjugated IgG antibodies were tested for their ability to bind amyloid beta (Aβ40 and Aβ42), using a western immunoblotting assay. In brief, Aβ40 or Aβ42 peptides (0.5 μg in diluent; Covance) were diluted in 4 μl nanopure water and prepared with 2× sample buffer to run through 4-20% Pierce Precise Protein Gel at 55V for 15 min, and then at 100V for 55 min. The proteins were then transferred onto 0.2 μm nitrocellulose membrane at 6V for 30 min. The membrane was blocked with a solution of dried milk powder (5% in Tris-buffered saline with Tween20; TBST, 1 L distilled water, 8 g NaCl, 2.4 g Tris, pH 7.5 with HCl, 1 mL Tween20). Membranes were then incubated overnight with a 1000-fold dilution of unconjugated or PSA-conjugated 6E10 IgG or F(ab′)₂ preparations, washed thrice with TBST for 5 min each, incubated with 1:2000 dilution of HRP-conjugated goat anti-mouse secondary antibody, and washed twice again with TBST for 10 min each. The chemiluminescent signal was developed with ECL-Plus reagent and the membranes were exposed to Kodak films to illustrate the bands.

[4] = target: T1, Abeta42 beta amyloid peptide; experiment: western immunoblot of Aβ42 peptide, antibody at 1000-fold dilution
Method: as §2

T1 sequence (P05067 672-713 limits assumed): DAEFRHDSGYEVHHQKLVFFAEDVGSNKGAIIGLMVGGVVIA
T2 sequence (P05067 672-711 limits assumed): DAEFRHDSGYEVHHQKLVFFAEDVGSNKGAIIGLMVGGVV

Row | Binder | Fold Difference (IC50 normalized to the reference) [1] [fold] | IC50 [1] [µg/mL] | fold difference in IC50 relative to mouse 6E10 (Binding Efficiencies Relative to Mouse MDT-2007) [2] [fold] | further results
1 | MDT-2007 (composite human antibody sequence variant VH4/VK2) (antibody, V domains shown, Human IgG1/kappa (pANT15/pANT13)) VH: QVQLVQSGAEVKKPGASVKVSCTASGFNIKDTYIHWVRQARGQRLEWIGRFDPVNVNTRYDSRFRGRVTITSDASTNTAYMELSSLRSEDTAVYYCSRSYYNGRRRFTYWGQGTLVTVSS VL: DIVMTQSPSSLTASVGDRVTITCKASQSLLSSGNQKNYLTWYQQKPGQPPKLLIYWASIRESGVPDRFTGSGSGTFFTLTISSLQAEDVAVYYCQNDYNYPFTFGQGTKLEIK | 0.57 | 2.1 | 0.67 | fold increase in binding compared to the mouse reference [3]: 1.72 fold
2 | chimeric 6E10 antibody (mouse 6E10 V regions, human IgG1/kappa constant regions) (antibody, V domains shown, also called chimeric mouse 6E10 antibody; chimeric antibody) VH: EVQLQQSGAELVKPGASVKLSCTASGFNIKDTYIHWVKQRPEQGLEWIGRFDPVNVNTRYDSRFRGKATITSDASSNTAYLHLNSLTSEDTAVYYCSRSYYNGRRRFTYWGQGTLVTVSA VL: DIVMTQSPSSLTVTAGEKVALTCKASQSLLSSGNQKNYLTWYQQKPGQPPKLLIYWASIRESGVPDRFTGSGSGTFFTLTISSVQAEDLAVYYCQNDYNYPFTFGSGTKLEIK | 1 | 3.6 |  | 
3 | PSA-conjugated 6E10 IgG anti-Aβ antibody (antibody, V domains shown, polysialic acid (PSA) conjugated; site and chain not stated; polysialic acid (PSA, 30 to 90 sialic acid units) conjugated by periodate oxidation and sodium cyanoborohydride; site and chain not stated, also called PSA-conjugated IgG anti-Aβ; conjugated IgG antibodies) VH: EVQLQQSGAELVKPGASVKLSCTASGFNIKDTYIHWVKQRPEQGLEWIGRFDPVNVNTRYDSRFRGKATITSDASSNTAYLHLNSLTSEDTAVYYCSRSYYNGRRRFTYWGQGTLVTVSA VL: DIVMTQSPSSLTVTAGEKVALTCKASQSLLSSGNQKNYLTWYQQKPGQPPKLLIYWASIRESGVPDRFTGSGSGTFFTLTISSVQAEDLAVYYCQNDYNYPFTFGSGTKLEIK |  |  |  | binding result (Aβ40 peptide): binds; binding result [4]: binds
4 | composite human antibody variant VH2/VK2 (antibody, human IgG1, V domains shown, Human IgG1/kappa (pANT15/pANT13); Tested as quantified NS0 supernatant) VH: EVQLVQSGAEVKKPGASVKVSCTASGFNIKDTYIHWVRQARGQRLEWIGRFDPVNVNTRYDSRFRGRATITSDASTNTAYMELSSLRSEDTAVYYCSRSYYNGRRRFTYWGQGTLVTVSS VL: DIVMTQSPSSLTASVGDRVTITCKASQSLLSSGNQKNYLTWYQQKPGQPPKLLIYWASIRESGVPDRFTGSGSGTFFTLTISSLQAEDVAVYYCQNDYNYPFTFGQGTKLEIK |  |  | 1.1 | 
5 | composite human antibody variant VH4/VK1 (antibody, human IgG1, V domains shown, Human IgG1/kappa (pANT15/pANT13)) VH: QVQLVQSGAEVKKPGASVKVSCTASGFNIKDTYIHWVRQARGQRLEWIGRFDPVNVNTRYDSRFRGRVTITSDASTNTAYMELSSLRSEDTAVYYCSRSYYNGRRRFTYWGQGTLVTVSS VL: DIVMTQSPDSLTVSLGERATINCKASQSLLSSGNQKNYLTWYQQKPGQPPKLLIYWASIRESGVPDRFTGSGSGTFFTLTISSLQAEDVAVYYCQNDYNYPFTFGQGTKLEIK | 1.14 | 4.1 | 0.94 | 
6 | composite human antibody variant VH1/VK1 (antibody, human IgG1, V domains shown, Human IgG1/kappa (pANT15/pANT13); Tested as quantified NS0 supernatant) VH: EVQLVQSGAELKKPGASVKVSCTASGFNIKDTYIHWVRQAPGQRLEWIGRFDPVNVNTRYDSRFRGRATITSDASTNTAYMELSSLRSEDTAVYYCSRSYYNGRRRFTYWGQGTLVTVSS VL: DIVMTQSPDSLTVSLGERATINCKASQSLLSSGNQKNYLTWYQQKPGQPPKLLIYWASIRESGVPDRFTGSGSGTFFTLTISSLQAEDVAVYYCQNDYNYPFTFGQGTKLEIK |  |  | 0.78 | 
7 | composite human antibody variant VH3/VK3 (antibody, human IgG1, V domains shown, Human IgG1/kappa (pANT15/pANT13); Tested as quantified NS0 supernatant) VH: QVQLVQSGAEVKKPGASVKVSCTASGFNIKDTYIHWVRQARGQRLEWIGRFDPVNVNTRYDSRFRGRATITSDASTNTAYMELSSLRSEDTAVYYCSRSYYNGRRRFTYWGQGTLVTVSS VL: DIVMTQSPSSLTASVGDRVTITCKASQSLLSSGNQKNYLTWYQQKPGQPPKLLIYWASIRESGVPDRFSGSGSGTDFTLTISSLQAEDVAVYYCQNDYNYPFTFGQGTKLEIK |  |  | 1.57 | 
8 | composite human antibody variant VH2/VK3 (antibody, human IgG1, V domains shown, Human IgG1/kappa (pANT15/pANT13); Tested as quantified NS0 supernatant) VH: EVQLVQSGAEVKKPGASVKVSCTASGFNIKDTYIHWVRQARGQRLEWIGRFDPVNVNTRYDSRFRGRATITSDASTNTAYMELSSLRSEDTAVYYCSRSYYNGRRRFTYWGQGTLVTVSS VL: DIVMTQSPSSLTASVGDRVTITCKASQSLLSSGNQKNYLTWYQQKPGQPPKLLIYWASIRESGVPDRFSGSGSGTDFTLTISSLQAEDVAVYYCQNDYNYPFTFGQGTKLEIK |  |  | 0.96 | 
9 | composite human antibody variant VH4/VK3 (antibody, human IgG1, V domains shown, Human IgG1/kappa (pANT15/pANT13); Tested as quantified NS0 supernatant) VH: QVQLVQSGAEVKKPGASVKVSCTASGFNIKDTYIHWVRQARGQRLEWIGRFDPVNVNTRYDSRFRGRVTITSDASTNTAYMELSSLRSEDTAVYYCSRSYYNGRRRFTYWGQGTLVTVSS VL: DIVMTQSPSSLTASVGDRVTITCKASQSLLSSGNQKNYLTWYQQKPGQPPKLLIYWASIRESGVPDRFSGSGSGTDFTLTISSLQAEDVAVYYCQNDYNYPFTFGQGTKLEIK |  |  | 1.36 | 
10 | composite human antibody variant VH5/VK2 (antibody, human IgG1, V domains shown, Human IgG1/kappa (pANT15/pANT13)) VH: QVQLVQSGAEVKKPGASVKVSCTASGFNIKDTYIHWVRQARGQRLEWIGRFDPVNVNTRYDSRFRGRVTITSDASTSTAYMELSSLRSEDTAVYYCSRSYYNGRRRFTYWGQGTLVTVSS VL: DIVMTQSPSSLTASVGDRVTITCKASQSLLSSGNQKNYLTWYQQKPGQPPKLLIYWASIRESGVPDRFTGSGSGTFFTLTISSLQAEDVAVYYCQNDYNYPFTFGQGTKLEIK | 0.72 | 2.6 | 0.72 | 
11 | composite human antibody variant VH5/VK3 (antibody, human IgG1, V domains shown, Human IgG1/kappa (pANT15/pANT13); Tested as quantified NS0 supernatant) VH: QVQLVQSGAEVKKPGASVKVSCTASGFNIKDTYIHWVRQARGQRLEWIGRFDPVNVNTRYDSRFRGRVTITSDASTSTAYMELSSLRSEDTAVYYCSRSYYNGRRRFTYWGQGTLVTVSS VL: DIVMTQSPSSLTASVGDRVTITCKASQSLLSSGNQKNYLTWYQQKPGQPPKLLIYWASIRESGVPDRFSGSGSGTDFTLTISSLQAEDVAVYYCQNDYNYPFTFGQGTKLEIK |  |  | 1.02 | 
12 | composite human antibody variant VH1/VK3 (antibody, human IgG1, V domains shown, Human IgG1/kappa (pANT15/pANT13); Tested as quantified NS0 supernatant) VH: EVQLVQSGAELKKPGASVKVSCTASGFNIKDTYIHWVRQAPGQRLEWIGRFDPVNVNTRYDSRFRGRATITSDASTNTAYMELSSLRSEDTAVYYCSRSYYNGRRRFTYWGQGTLVTVSS VL: DIVMTQSPSSLTASVGDRVTITCKASQSLLSSGNQKNYLTWYQQKPGQPPKLLIYWASIRESGVPDRFSGSGSGTDFTLTISSLQAEDVAVYYCQNDYNYPFTFGQGTKLEIK |  |  | 1.93 | 
13 | composite human antibody variant VH5/VK1 (antibody, human IgG1, V domains shown, Human IgG1/kappa (pANT15/pANT13)) VH: QVQLVQSGAEVKKPGASVKVSCTASGFNIKDTYIHWVRQARGQRLEWIGRFDPVNVNTRYDSRFRGRVTITSDASTSTAYMELSSLRSEDTAVYYCSRSYYNGRRRFTYWGQGTLVTVSS VL: DIVMTQSPDSLTVSLGERATINCKASQSLLSSGNQKNYLTWYQQKPGQPPKLLIYWASIRESGVPDRFTGSGSGTFFTLTISSLQAEDVAVYYCQNDYNYPFTFGQGTKLEIK | 0.91 | 3.3 | 0.8 | 
